Legend:
[1] = target: T1, Rhesus LILRB1 (F7H3G7) on CHOK1 cells (rhesus macaque); assay: flow cytometry on CHOK1-rhesus LILRB1 (F7H3G7) cells
T1 construct: whole, on cells; also called CHOK1-Rhesus LILRB1 (F7H3G7)

[2] = target: T2, human LILRB2 expressed on CHOK1 cells (human, UniProt Q8N423 22-597); assay: cell based RBA on CHOK1-hLILRB2 cells, flow cytometry; competitor HLA-G
T2 construct: whole, on cells; also called CHOK1-hLILRB2; CHOK1-LILRB2

[3] = target: T3, human LILRB1 expressed on CHOK1 cells (human, UniProt Q8NHL6 24-650); assay: flow cytometry (FACS) binding to CHOK1-hLILRB1 cells
T3 construct: whole, on cells; also called CHOK1-hLILRB1; CHOK1-LILRB1
T3 sequence (Q8NHL6 24-650): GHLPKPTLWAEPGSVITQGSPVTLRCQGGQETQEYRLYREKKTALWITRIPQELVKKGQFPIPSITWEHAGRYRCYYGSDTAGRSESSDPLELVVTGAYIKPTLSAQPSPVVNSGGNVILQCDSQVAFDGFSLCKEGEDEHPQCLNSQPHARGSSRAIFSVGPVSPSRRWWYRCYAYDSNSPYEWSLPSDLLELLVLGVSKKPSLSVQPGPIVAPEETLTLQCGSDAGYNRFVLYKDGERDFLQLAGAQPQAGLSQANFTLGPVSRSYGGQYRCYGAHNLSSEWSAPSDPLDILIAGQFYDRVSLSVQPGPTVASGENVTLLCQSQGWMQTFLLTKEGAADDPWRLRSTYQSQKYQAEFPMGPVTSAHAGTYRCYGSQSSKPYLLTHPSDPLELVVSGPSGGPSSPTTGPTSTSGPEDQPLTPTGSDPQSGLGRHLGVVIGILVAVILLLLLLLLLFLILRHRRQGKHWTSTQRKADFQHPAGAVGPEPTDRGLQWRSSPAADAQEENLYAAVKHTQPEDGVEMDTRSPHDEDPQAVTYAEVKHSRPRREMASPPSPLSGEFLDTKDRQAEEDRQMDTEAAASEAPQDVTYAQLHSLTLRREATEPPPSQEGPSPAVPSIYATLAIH

[4] = target: T3, human LILRB1 expressed on CHOK1 cells; assay: cell based RBA on CHOK1-hLILRB1 cells, flow cytometry; competitor HLA-G
[5] = target: T2, human LILRB2 expressed on CHOK1 cells; assay: flow cytometry (FACS) binding to CHOK1-hLILRB2 cells
Biotinylated LILRB1 [6] = target: T4, Biotinylated LILRB1 (UniProt Q8NHL6 24-458, limits assumed, biotinylated (sites not given)); assay: epitope binning ELISA, coated 1 ug/ml; competitor hz73D1.v1 at 20 ug/ml
T4 sequence (Q8NHL6 24-458 limits assumed): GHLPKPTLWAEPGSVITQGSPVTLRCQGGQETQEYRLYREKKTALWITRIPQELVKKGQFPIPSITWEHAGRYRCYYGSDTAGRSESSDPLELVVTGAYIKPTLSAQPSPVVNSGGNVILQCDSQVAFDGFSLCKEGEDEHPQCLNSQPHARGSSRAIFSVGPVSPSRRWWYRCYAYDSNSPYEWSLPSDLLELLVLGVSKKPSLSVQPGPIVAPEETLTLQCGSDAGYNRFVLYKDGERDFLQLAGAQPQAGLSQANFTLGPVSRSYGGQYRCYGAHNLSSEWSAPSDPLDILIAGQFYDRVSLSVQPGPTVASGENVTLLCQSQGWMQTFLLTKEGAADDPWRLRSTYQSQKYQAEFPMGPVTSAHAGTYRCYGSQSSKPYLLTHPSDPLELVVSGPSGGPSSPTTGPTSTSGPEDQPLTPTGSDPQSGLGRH

Biotinylated LILRB1 [7] = target: T4, Biotinylated LILRB1; assay: epitope binning ELISA, coated 1 ug/ml; competitor 15G8 at 20 ug/ml
Method: (§1) Binding epitope of a subset of anti-LILRB1 and anti-LILRB2 antibodies was analyzed by epitope binning ELISA. Briefly, a panel of testing antibodies were coated onto ELISA plate. 50 ul/well Biotinylated LILRB1 or LILRB2 and 50 ul/well of competing antibodies were added to the coated plate and incubated at 37° C. for 1 hour. After Streptavidin-HRP (1:5000) incubation and TMB development, the plates were read at 450 nm using Molecular device spectra max plus384.

Biotinylated LILRB1 [8] = target: T4, Biotinylated LILRB1; assay: epitope binning ELISA, coated 1 ug/ml; competitor LK-RB1-47 at 20 ug/ml
Method: as §1

Biotinylated LILRB1 [9] = target: T4, Biotinylated LILRB1; assay: epitope binning ELISA, coated 1 ug/ml; competitor LK-RB1-9 at 20 ug/ml
Method: as §1

Biotinylated LILRB1 [10] = target: T4, Biotinylated LILRB1; assay: epitope binning ELISA, coated 1 ug/ml; competitor LK-RB1-33 at 20 ug/ml
Method: as §1

human LILRB1 = target: T5, human LILRB1 (human, UniProt Q8NHL6 24-458, limits assumed); assay: Octet off-rate ranking;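 note: antibody dissociation rate constants against cynomolgus LILRB2 plus human LILRB1, LILRB2, LILRA1 and LILRA2, measured on an Octet instrument to rank binding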
T5 construct: also called hLILRB1
T5 sequence (Q8NHL6 24-458 limits assumed): as above
From the text: Binding affinity of anti-LILRB1 and anti-LILRB2 antibodies against human LILRB1, LILRB2, LILRA1, LILRA2 and cynomolgus LILRB2 was ranked by measuring dissociation rate constant (Kdis) using the Octet system.

Biotinylated LILRB1 [11] = target: T4, Biotinylated LILRB1; assay: epitope binning ELISA, coated 1 ug/ml; competitor LK-RB1-31 at 20 ug/ml
Method: as §1

Biotinylated LILRB1 [12] = target: T4, Biotinylated LILRB1; assay: epitope binning ELISA, coated 1 ug/ml; competitor LK-RB1-16 at 20 ug/ml
Biotinylated LILRB1 [13] = target: T4, Biotinylated LILRB1; assay: epitope binning ELISA, coated 1 ug/ml; competitor LK-RB1-12 at 20 ug/ml
Method: as §1

T2 sequence (Q8N423 22-597): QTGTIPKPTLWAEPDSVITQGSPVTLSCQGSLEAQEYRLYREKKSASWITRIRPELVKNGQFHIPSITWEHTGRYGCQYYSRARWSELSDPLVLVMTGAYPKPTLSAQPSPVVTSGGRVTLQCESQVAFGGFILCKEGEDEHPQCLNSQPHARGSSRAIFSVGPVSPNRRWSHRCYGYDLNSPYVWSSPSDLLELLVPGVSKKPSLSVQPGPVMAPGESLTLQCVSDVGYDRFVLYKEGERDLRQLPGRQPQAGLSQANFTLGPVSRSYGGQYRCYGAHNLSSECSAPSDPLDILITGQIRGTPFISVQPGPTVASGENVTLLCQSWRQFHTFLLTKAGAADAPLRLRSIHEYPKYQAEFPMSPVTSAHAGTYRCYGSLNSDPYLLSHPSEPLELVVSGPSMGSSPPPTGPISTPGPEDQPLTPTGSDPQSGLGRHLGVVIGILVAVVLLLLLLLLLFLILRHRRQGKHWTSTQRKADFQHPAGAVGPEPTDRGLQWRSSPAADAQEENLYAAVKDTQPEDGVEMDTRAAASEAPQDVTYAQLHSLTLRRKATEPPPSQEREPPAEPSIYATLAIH

Row | EC50 [1] [nM] | EC50 [2] [µg/mL] | EC50 [3] [nM] | EC50 [4] [µg/mL] | EC50 [5] [nM] | Binder | further results
1 | 1.25 | – | – | – | – | hz73D1.v1 (antibody, human IgG4 S228P, kappa, V domains shown) VH: QVQLVQSGAEVKKPGASVKVSCKASGYTFTDYYINWVRQAPGQGLEWMGNVNPNDGGTTYNQKFKGRVTMTTDTSTSTAYMELRSLRSDDTAVYYCARREIYFYGTIYYYAMDYWGQGTLVTVSS VL: DIQLTQSPSFLSASVGDRVTITCRASESVDYYGNSFMYWYQQKPGKAPKLLIYFASNLESGVPSRFSGSGSGTEFTLTISSLQPEDFATYYCQQNNEDPWTFGGGTKVEIKR [hz73D1.v1, listing 1 of 2 here] | –
2 | – | 1.46 | 5.37 | 7.26 | 1.4 | hz73D1.v1 (antibody, human IgG4 S228P, kappa, V domains shown) VH: QVQLVQSGAEVKKPGASVKVSCKASGYTFTDYYINWVRQAPGQGLEWMGNVNPNDGGTTYNQKFKGRVTMTTDTSTSTAYMELRSLRSDDTAVYYCARREIYFYGTIYYYAMDYWGQGTLVTVSS VL: DIQLTQSPSFLSASVGDRVTITCRASESVDYYGNSFMYWYQQKPGKAPKLLIYFASNLESGVPSRFSGSGSGTEFTLTISSLQPEDFATYYCQQNNEDPWTFGGGTKVEIKR [hz73D1.v1, listing 2 of 2 here] | –
3 | 19900 | – | – | – | – | LK-RB1-50 (antibody, human IgG4 S228P, kappa, V domains shown, Anti-LILRB1 antibody) VH: QVQLKQSGPGLVQPSQSLSITCTVSGFSLTSYGVHWVRQSPGKGLEWLGVIWRGGNTDYNAPFVSRLSITKDNSQSQVFFKMNSLEADDTAIYYCAKNSLDVYSSWYFDVWGTGTTVTVSS VL: QIVLSQSPAILSAFPGEKVTMTCRASSSVSFMHWYQQKPGSSPKPWIYATSNLASGVPARFSGSGSGTSYSLTISRVEAEDAATYYCQQWSSNPLTFGAGTKLELKR | –
4 | 17900 | – | – | – | – | LK-RB1-58 (antibody, human IgG4 S228P, kappa, V domains shown, Anti-LILRB1 antibody) VH: QVQLKQSGPGLVQPSQSLSITCTVSGFSLTTYGVHWVRQSPGKGLEWLGVIWRGGSTDYNAAFMSRLSITKDNSKSQVFFRMNSLQADDTARYYCAKNSLYYGSSWYFDVWGTGTTVTVSS VL: QIVLSQSPAILSASPGEKVTMTCRASSSVSFMHWYQQKPGSSPKPWIYATSNLASGVPARFSGSGSGTSYSLTISRVEAEDAATYYCQQWSSNPPTFGGGTKLEIKR | –
5 | 26600 | – | – | – | – | LK-RB1-51 (antibody, human IgG4 S228P, kappa, V domains shown, Anti-LILRB1 antibody) VH: QVQIQQSGAELVKPGASVKLSCKASGYTFTEFPIHWIKQRSGQGLEWIGWFYPGSDNMNYNEKFKDKATLTADKSSSTVYMELSRLTSEDSAVYFCARHENAYFYAMDYWGQGTSVTVSS VL: ENVLTQSPAIMSASLGEKVTMSCRASSSVNYMYWYQQKSDASPKIWIYYTSNLAPGVPARFSGSGSGNSYSLTISSMEGEDAATYYCQQFTSSPFTFGTGTKLEIKR | –
6 | 24200 | – | – | – | – | LK-RB1-54 (antibody, human IgG4 S228P, kappa, V domains shown, Anti-LILRB1 antibody) VH: DVQLQESGPGLVKPSQSLSLTCSVTGYSITSGFYWNWIRQFPGNKLEWMGHISYDGTNNYNPSLKNRISITRDTSKNLFFLKLNSVTTEDTATFHCARGGYGGSYGFDYWGQGTTLTVSS VL: ENVLTQSPAIMSASLGEKVTMSCRASSSVNYMYWYQQKSDASPKLWIYYTSNLAPGVPVRFSGSGSGNSYSLTISSMEGEDAATYYCQQFTSSPWTFGGGTKLEIKR | –
7 | – | – | – | – | – | LK-RB1-16 (antibody, human IgG4 S228P, kappa, V domains shown) VH: QVQLKESGPGLVAPSQSLSITCTVSGFSLISNAISWVRQPPGKGLEWLGVIWGDGNTIYHSALRSRLTISKDNSKSQVFLKLNSLQIDDTATYYCAKANWDGYYFDYWGQGTTLTVSS VL: DIQMNQSPSSLSASLGDTITITCHASQSVDFWLNWYQQKPGNIPKLLISKASNLHTGVPSRFSGSGSGTTFTLTISSLQPEDIATYYCQQGQSYPLTFGSGTKLEIKR | Inhibition % (Biotinylated LILRB1 [6]): 1.48%; Inhibition % (Biotinylated LILRB1 [7]): 0.37%; Inhibition % (Biotinylated LILRB1 [8]): 2.23%; Inhibition % (Biotinylated LILRB1 [9]): 0.98%; Inhibition % (Biotinylated LILRB1 [10]): -0.04%; koff (human LILRB1): 5.92e-05 s⁻¹; Inhibition % (Biotinylated LILRB1 [11]): 3.39%; Inhibition % (Biotinylated LILRB1 [12]): 42.9%; Inhibition % (Biotinylated LILRB1 [13]): 12.5%
8 | – | 0.5 | 2.21 | 0.91 | 1.06 | LK-RBi-10 (bispecific antibody, human IgG4 S228P, kappa) heavy: not shown light: EIVLTQSPATLSLSPGERATLSCRASQSISDYLHWYQQKPGQAPRLLIKYASQSISGIPSRFSGSGSGTDFTLTISSLEPEDVAVYYCQNGHSFPYTFGGGTKLEIKGGSGGGGSGDIQMTQSPSSLSASVGDRVTITCETSENIYGALNWYQQKPGKAPKLLIYGATNLAEGVPSRFSGSGSGTDFTFTISSLQPEDIATYYCQNVLNTPWTFGGGTKLEIKRTVAAPSVFIFPPSDEQLKSGTASVVCLLNNFYPREAKVQWKVDNALQSGNSQESVTEQDSKDSTYSLSSTLTLSKADYEKHKVYACEVTHQGLSSPVTKSFNRGEC | –
9 | 0.78 | – | – | – | – | LK-RB1-11 (antibody, human IgG4 S228P, kappa, V domains shown, Anti-LILRB1 antibody) VH: QVTLKESGPGILQPSQTLSLTCSFSGFSLKTSGMSVGWIRQPSGKGLEWLAHIWWNDDKYYNPVLKGRLTISKDTSNNLVFLKIASVVSTDTATYYCVRYGNSHGYWYFDVWGTGTTVTVSS VL: NIVLTQSPASLAVSLGQRATISCRASESVDSYGNNFIHWYQQKPGQPPKVLIYYASNLEAGVPARFSGSGSRTDFTLTIDPVEAEDAATYYCQQNNEDPYTFGGGTKLEIER | –
10 | – | – | – | – | – | LK-RB1-12 (antibody, human IgG4 S228P, kappa, V domains shown) VH: QVQLQQSGTELVRPGSSVMISCKASGYAFSTYWMDWVKQRPGQGLEWIGQIYPGDGATNYNGKFKGKATLTADKSSITAYMHLSSLTSEDSAVYFCLRSRDYDGWFFDVWGAGTTVTVSS VL: DIVMTQSHKFMSTSIGDRVSITCKASQDVSSAVAWYQQKPGQSPKLLIYWASTRHTGVPDRFTGSGSGTDYTLTFSSVQAEDLALYYCQQHYSTPWTFGGGTKLEIKR | Inhibition % (Biotinylated LILRB1 [6]): 77.3%; Inhibition % (Biotinylated LILRB1 [7]): -9.78%; Inhibition % (Biotinylated LILRB1 [8]): 83.2%; Inhibition % (Biotinylated LILRB1 [9]): 84.5%; Inhibition % (Biotinylated LILRB1 [10]): 75.3%; koff (human LILRB1): 0.00126 s⁻¹; Inhibition % (Biotinylated LILRB1 [11]): 83%; Inhibition % (Biotinylated LILRB1 [12]): 88%; Inhibition % (Biotinylated LILRB1 [13]): 90.3%
11 | – | 2.49 | 2.31 | 4.37 | 2.22 | LK-RBi-11 (bispecific antibody, human IgG4 S228P, kappa) heavy: not shown light: DIQMTQSPSTLSASVGDRVTITCHASQSVDFWLNWYQQKPGKAPKLLISKASNLHTGVPSRFSGSGSGTEFTLTISSLQPDDFATYYCQQGQSYPLTFGQGTKLEIKGGSGGGGSGDIQMTQSPSSVSASVGDRVTITCRASENIYSNLAWYQQKPGKAPKLLIYAATNLAEGVPSRFSGSGSGTDYTLTISSLQPEDFATYYCQQFWDNPLTFGQGTKLEIKRTVAAPSVFIFPPSDEQLKSGTASVVCLLNNFYPREAKVQWKVDNALQSGNSQESVTEQDSKDSTYSLSSTLTLSKADYEKHKVYACEVTHQGLSSPVTKSFNRGEC | –
12 | – | 0.43 | 1.17 | 1.03 | 1.29 | LK-RBi-09 (bispecific antibody, human IgG4 S228P, kappa) heavy: not shown light: DIQMTQSPSSLSASVGDRVTITCETSENIYGALNWYQQKPGKAPKLLIYGATNLAEGVPSRFSGSGSGTDFTFTISSLQPEDIATYYCQNVLNTPWTFGGGTKLEIKGGSGGGGSGEIVLTQSPATLSLSPGERATLSCRASQSISDYLHWYQQKPGQAPRLLIKYASQSISGIPSRFSGSGSGTDFTLTISSLEPEDVAVYYCQNGHSFPYTFGGGTKLEIKRTVAAPSVFIFPPSDEQLKSGTASVVCLLNNFYPREAKVQWKVDNALQSGNSQESVTEQDSKDSTYSLSSTLTLSKADYEKHKVYACEVTHQGLSSPVTKSFNRGEC | –
13 | – | 0.57 | 1.47 | 1.31 | 0.73 | LK-RBi-06 (bispecific antibody, human IgG4 S228P, kappa) heavy: not shown light: DIQMTQSPSTLSASVGDRVTITCHASQSVDFWLNWYQQKPGKAPKLLISKASNLHTGVPSRFSGSGSGTEFTLTISSLQPDDFATYYCQQGQSYPLTFGQGTKLEIKRTVAAPSVFIFPPSDEQLKSGTASVVCLLNNFYPREAKVQWKVDNALQSGNSQESVTEQDSKDSTYSLSSTLTLSKADYEKHKVYACEVTHQGLSSPVTKSFNRGEC | –
14 | – | 0.97 | 2.51 | 1.22 | 1.58 | LK-RBi-07 (bispecific antibody, human IgG4 S228P, kappa) heavy: not shown light: DIQMTQSPSTLSASVGDRVTITCHASQSVDFWLNWYQQKPGKAPKLLISKASNLHTGVPSRFSGSGSGTEFTLTISSLQPDDFATYYCQQGQSYPLTFGQGTKLEIKRTVAAPSVFIFPPSDEQLKSGTASVVCLLNNFYPREAKVQWKVDNALQSGNSQESVTEQDSKDSTYSLSSTLTLSKADYEKHKVYACEVTHQGLSSPVTKSFNRGEC | –
